Assay results as given in article PMC10873205.

Molecular target: UBR4_(xtal) (UBR4 residues 4,730–5,183) (human) (UniProt Q5T4S7)
Assay: ITC; UBR4 construct in the cell (74 μM), UBE2A in the syringe at tenfold higher concentration; 25 °C; 0.4 µl then 13 injections of 3 µl; UBE2A into buffer subtracted; single site binding model

UBR4_(xtal) (UBR4 residues 4,730–5,183) (human), sequence (Q5T4S7 4730-5183): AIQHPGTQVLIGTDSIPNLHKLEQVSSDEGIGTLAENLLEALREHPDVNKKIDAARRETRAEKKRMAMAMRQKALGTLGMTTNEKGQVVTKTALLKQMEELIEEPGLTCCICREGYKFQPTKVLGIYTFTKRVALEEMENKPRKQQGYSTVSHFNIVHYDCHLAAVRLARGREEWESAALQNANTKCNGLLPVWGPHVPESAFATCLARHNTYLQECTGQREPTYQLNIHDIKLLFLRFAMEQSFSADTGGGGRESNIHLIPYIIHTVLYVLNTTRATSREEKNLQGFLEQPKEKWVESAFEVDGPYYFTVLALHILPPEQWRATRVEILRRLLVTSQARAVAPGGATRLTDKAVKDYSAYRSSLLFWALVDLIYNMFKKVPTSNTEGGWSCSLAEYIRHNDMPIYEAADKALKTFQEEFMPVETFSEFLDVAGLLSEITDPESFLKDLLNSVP
UBE2A, sequence (P49459 whole entry): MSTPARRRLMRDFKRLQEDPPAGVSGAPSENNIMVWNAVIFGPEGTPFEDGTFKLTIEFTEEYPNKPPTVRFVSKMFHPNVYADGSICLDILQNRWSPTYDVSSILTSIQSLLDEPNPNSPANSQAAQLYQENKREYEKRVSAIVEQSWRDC

For “UBE2A (from UniProt P49459 1-152) (enzyme)”, the dH was -13.9 kcal/mol.
